Results on 2 molecules are retold here after US9809653B2, “Anti-LAMP1 antibodies and antibody drug conjugates, and uses thereof” (SANOFI, priority 2012, dated 2017).

Format in all cases: binding
Test [1] deals with T1, LAMP1 (SEQ ID NO: 28 protein) (Homo sapiens, UniProt P11279).
T1 construct: made in house; host or cells: HEK293 (293-F), transient expression, IMAC-purified
T1 sequence (P11279 with tags, fused parts or gaps): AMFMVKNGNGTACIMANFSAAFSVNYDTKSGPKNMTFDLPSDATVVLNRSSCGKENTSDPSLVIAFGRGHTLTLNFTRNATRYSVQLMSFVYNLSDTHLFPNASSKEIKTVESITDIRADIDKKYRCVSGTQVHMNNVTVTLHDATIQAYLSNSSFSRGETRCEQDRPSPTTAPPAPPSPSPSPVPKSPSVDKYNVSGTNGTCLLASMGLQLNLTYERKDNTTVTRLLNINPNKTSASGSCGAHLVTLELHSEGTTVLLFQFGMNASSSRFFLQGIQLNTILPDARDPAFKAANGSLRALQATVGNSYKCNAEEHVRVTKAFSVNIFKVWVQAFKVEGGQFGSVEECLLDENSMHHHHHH
As to the kind of experiment: Affinity to LAMP1 by SPR (BIAcore 2000). How it is done: The use of surface plasmon resonance to determine is known to the skilled in the art. In one example the binding kinetics of for example the murine, chimer or humanized anti-LAMP1 mAbs were determined by surface plasmon resonance assay using typically a BIAcore 2000 (BIAcore Inc., Uppsala, N.J.). Therefore, for example a CM5 BIAcore biosensor chip was docked into the instrument and activated with for example 70 μL of 1:1 NHS/EDC at room temperature. Typically, a mouse anti-αhuman Fc IgG1 (BIAcore #BR-1008-39) and rabbit anti-αmurine Fc IgG1 (BIAcore #BR-1008-38) (50 μg/mL in 1 M acetate buffer, pH5) were immobilized on the activated chips in all flow cells. The immobilization was carried out at a flow rate of for example 10 μL/min up to saturation. The chip was then blocked by for example injection of 70 μL of ethanolamine-HCl, pH 8.5, followed by one wash with 3 M MgCl2 for anti-αhuman Fc IgG1 and one wash with 10 mM Glycine-HCl pH 1.7 for anti-αmurine Fc IgG1. To measure the binding of for example anti-LAMP1 mAbs to LAMP1, antibodies were used at 1-5 μg/mL in BIAcore running buffer (HBS-EP). The antigen for example (Sequence ID No 28 protein produced as described in example 6.2) was injected from for example 1 to 256 nM. Following completion of the injection phase, dissociation was monitored in a BIAcore running buffer at the same flow rate for typically 600 sec. The surface was typically regenerated between injections using for example 2×5 μL 3 M MgCl2 (2×30 s) or anti-αhuman Fc IgG1 and 1×30 μL 10 mM Glycine-HCl pH 1.7 for anti-αmurine Fc IgG1 (180 s). Individual sensorgrams were typically analyzed using BIAevaluation software.
The binding kinetics of the murine, chimer or humanized anti-LAMP1 mAbs were determined by surface plasmon resonance assay using a BIAcore 2000 (BIAcore Inc., Uppsala, N.J.). Briefly, a CM5 BIAcore biosensor chip was docked into the instrument and activated with 70 μL of 1:1 NHS/EDC at room temperature. A mouse anti-αhuman Fc IgG1 (BIAcore #BR-1008-39) and rabbit anti-αmurine Fc IgG1 (BIAcore #BR-1008-38) (50 μg/mL in 1 M acetate buffer, pH5) were immobilized on the activated chips in all flow cells. The immobilization was carried out at a flow rate of 10 μL/min up to saturation. The chip was then blocked by injection of 70 μL of ethanolamine-HCl, pH 8.5, followed by one wash with 3 M MgCl2 for anti-αhuman Fc IgG1 and one wash with 10 mM Glycine-HCl pH 1.7 for anti-αmurine Fc IgG1. To measure the binding of anti-LAMP1 mAbs to LAMP1, antibodies were used at 1-5 μg/mL in BIAcore running buffer (HBS-EP). The antigen (SEQ ID NO: 28 protein produced as described in example 6.2) was injected from 1 to 256 nM. Following completion of the injection phase, dissociation was monitored in a BIAcore running buffer at the same flow rate for 600 sec. The surface was regenerated between injections using 2×5 μL 3 M MgCl2 (2×30 s) or anti-αhuman Fc IgG1 and 1×30 μL 10 mM Glycine-HCl pH 1.7 for anti-αmurine Fc IgG1 (180 s). Individual sensorgrams were analyzed using BIAevaluation software.

Test [2] deals with T2, recombinant human LAMP1 (29-382 of SEQ ID NO: 28) (Homo sapiens, UniProt P11279).
T2 construct: made in house; host or cells: HEK293 (293-F), transient expression, IMAC-purified
T2 sequence (P11279 with tags, fused parts or gaps): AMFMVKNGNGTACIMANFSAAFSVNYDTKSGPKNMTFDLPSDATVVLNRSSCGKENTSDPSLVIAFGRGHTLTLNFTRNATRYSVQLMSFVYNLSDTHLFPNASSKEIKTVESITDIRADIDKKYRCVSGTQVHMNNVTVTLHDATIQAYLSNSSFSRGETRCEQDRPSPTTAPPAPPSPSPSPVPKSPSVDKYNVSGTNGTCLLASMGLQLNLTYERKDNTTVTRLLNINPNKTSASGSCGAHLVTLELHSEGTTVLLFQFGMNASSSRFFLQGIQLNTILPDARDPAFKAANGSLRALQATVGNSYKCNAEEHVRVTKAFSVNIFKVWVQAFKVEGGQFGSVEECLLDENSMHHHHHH
As to the kind of experiment: ELISA on recombinant human LAMP1. A general note: In an ELISA, binding on a coated surface is turned into a signal by an enzyme label.

The target of test [3] is T3, LAMP1 expressed on the surface of advanced human primary colon tumor CR-IGR-034P (Homo sapiens, UniProt P11279).
T3 construct: endogenous in cells; host or cells: enzymatically dissociated patient-derived xenograft tumour cells (e.g. CR-IGR-034P, LUN-NIC-014P, BRE-IGR-0159) and tumour cell lines
T3 sequence (P11279 29-417): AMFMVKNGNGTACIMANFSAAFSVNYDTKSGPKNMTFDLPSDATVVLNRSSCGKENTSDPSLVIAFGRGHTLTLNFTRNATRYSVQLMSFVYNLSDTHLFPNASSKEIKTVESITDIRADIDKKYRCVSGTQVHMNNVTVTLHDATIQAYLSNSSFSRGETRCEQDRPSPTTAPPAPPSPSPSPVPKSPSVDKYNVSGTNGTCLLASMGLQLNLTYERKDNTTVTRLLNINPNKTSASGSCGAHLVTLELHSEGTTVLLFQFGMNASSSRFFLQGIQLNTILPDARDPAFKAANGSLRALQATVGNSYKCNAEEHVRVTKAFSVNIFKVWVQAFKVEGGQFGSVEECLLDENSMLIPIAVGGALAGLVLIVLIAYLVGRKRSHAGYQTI
In words: Apparent affinity to human primary colon tumor PDX by flow cytometry. The note with it: dissociated PDX tumor cells, 45 min at 4° C., read-out: EC50 obtained with CR-IGR-034P. How it is done: Advanced human primary colon tumor CR-IGR-034P was obtained from Patient-derived xenograft in mice. Tumor CR-IGR-034P was enzymatically dissociated using collagenase Type IV (Invitrogen; #17104-019) and deoxyribonuclease I (Invitrogen; #18047-019) for 1 h at 4° C. Cell viability was estimated by Viacount application using Guava® easyCyte™ 8HT Flow Cytometry System. […] 100 μL/well of goat anti-mouse IgG conjugated with Alexa647 (Invitrogen; #A2135) or goat anti-human IgG conjugated with Alexa488 (Invitrogen; #A11013) was added for 45 min at 4° C. and washed three times with PBS 1% BSA. The antibody binding was evaluated after centrifugation and resuspension of cells by adding 200 μl/well PBS 1% BSA and read using Guava® easyCyte™ 8HT Flow Cytometry System. EC50 values were estimated using BIOST@T-SPEED software. EC50 values obtained with the advanced human primary colon tumor CR-IGR-034P are listet in Table 3.
(A flow cytometer gives signals particle by particle.)

Setting [4] is: ELISA (Table 7), read-out: EC50.
Where [5] appears, read: ELISA (Table 13), read-out: EC50 (nM) human LAMP1.
[6] abbreviates: ELISA (Table 21), read-out: EC50 obtained for murine hybridoma mAbs hLAMP1.

Where “and” joins values, the source holds several entries; their conditions need not be identical. Equal entries are not always repeated. Where two headings read alike, the source gives them in different places.

B1: MAb1: murine monoclonal anti-LAMP1 antibody, VH SEQ ID NO: 1, VL SEQ ID NO: 5 (antibody, V domains shown)
VH: QVQLQQSGAELVKPGASVKMSCKASGYIFTNYNIHWVKKSPGQGLEWIGAIYPGNGDAPYSQKFKDKATLTADKSSSTTYMQLSRLTSEDSAVYYCVRANWDVAFAYWGQGTLVSVSA
VL: DIQMTQSPPSLSASLGGKVTITCKASQDIDRYMAWYQDKPGKGPRLLIHDTSTLQPGIPSRFSGSGSGRDYSFSISNLEPEDIATYYCLQYDNLWTFGGGTKLEIK
modifications: Antibody Fragment; antibody fragment
As to B1, the Kd – broadly, the equilibrium constant for the complex coming apart – in test [1] was found to be 4.8 nM. The same molecule showed a ka in test [1] of 148000 M⁻¹ s⁻¹. Moreover, in test [1], the kd stood at 0.00071 s⁻¹. Moreover, the EC50 (commonly the concentration at which the effect is half-maximal) in test [2] (setting [4]) was 0.18 nM; in test [2] (setting [5]) it was 0.18 nM; in test [2] (setting [6]), 0.18 nM; in test [2] (ELISA, read-out: EC50 to LAMP1), 0.16 nM and ~0.2 nM; in test [3], 5 nM.

B2: MAb2: murine monoclonal anti-LAMP1 antibody, VH SEQ ID NO: 8, VL SEQ ID NO: 12 (antibody, V domains shown)
VH: QVQLQQSAAELARPGASVKMSCKASGYTFTSYTMHWVKQRPGQGLEWIGYFNPSSGYPEYNQKFKDKTTLTADKSSNTAFIQLNSLTSEDSAVYYCSRGYYYGSRGYALDFWGQGASVTVSS
VL: NIVLTQSPVSLAVSLGQRATISCRASESVDINGNTFMHWYQQKPGQSPKLVIYAASNIESGVPARFSGSGSSTDFTFTIDPVEADDVATYYCQQNIEDPWTFGGGTKVEIK
modifications: antibod fragment; antibody fragment
B2: the dissociation constant Kd in test [1] was determined as 63.5 nM. In test [1], the ka turned out to be 63300 M⁻¹ s⁻¹. The kd in test [1] worked out at 0.00402 s⁻¹. For the same molecule, the EC50 in test [2] (setting [4]) is 0.25 nM; in test [2] (setting [5]), 0.25 nM; in test [2] (setting [6]) it was 0.25 nM; in test [2] (ELISA, read-out: EC50 to LAMP1), about 0.3 nM; in test [3] it was 14 nM.
